According to PMC9519379 (Cell Reports Medicine, 2022):

Target: SARS-CoV-2 Spike Trimer (B.1.617.2/Delta) (SARS-CoV-2) (UniProt P0DTC2)
Experiment: single-molecule force spectroscopy

H84T-banana lectin (H84T-BanLec) (from UniProt Q8L5H4 1-141) (designed binder)
IC50: 3.9 nM
